Measurements as given in PMC5128726, “Mechanism and Regulation of DNA-Protein Crosslink Repair by the DNA-Dependent Metalloprotease SPRTN”.

T1: SPRTN 247-489 (Homo sapiens, UniProt Q9H040 247-489)
T1 sequence: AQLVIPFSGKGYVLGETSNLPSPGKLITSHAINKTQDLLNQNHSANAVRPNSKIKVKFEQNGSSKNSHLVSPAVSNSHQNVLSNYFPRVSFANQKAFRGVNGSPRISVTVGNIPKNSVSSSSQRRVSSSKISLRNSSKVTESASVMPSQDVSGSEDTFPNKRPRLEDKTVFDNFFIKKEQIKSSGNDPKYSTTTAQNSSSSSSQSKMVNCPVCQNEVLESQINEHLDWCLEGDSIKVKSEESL

T2: SPRTN WT (Homo sapiens, UniProt Q9H040 1-489)
T2 sequence: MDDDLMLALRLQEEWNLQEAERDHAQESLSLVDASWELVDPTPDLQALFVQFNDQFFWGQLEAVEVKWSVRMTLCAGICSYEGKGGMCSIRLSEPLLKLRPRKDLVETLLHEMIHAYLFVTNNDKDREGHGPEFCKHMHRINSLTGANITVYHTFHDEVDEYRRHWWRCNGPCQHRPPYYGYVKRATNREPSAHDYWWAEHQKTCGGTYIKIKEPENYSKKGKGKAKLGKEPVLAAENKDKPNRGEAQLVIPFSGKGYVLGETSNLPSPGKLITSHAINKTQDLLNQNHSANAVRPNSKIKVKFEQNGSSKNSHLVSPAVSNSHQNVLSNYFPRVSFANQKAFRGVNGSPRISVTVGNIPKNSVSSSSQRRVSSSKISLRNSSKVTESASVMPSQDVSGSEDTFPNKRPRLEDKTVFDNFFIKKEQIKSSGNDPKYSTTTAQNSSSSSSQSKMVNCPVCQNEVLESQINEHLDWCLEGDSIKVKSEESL

T3: SPRTN 200-250 (Homo sapiens, UniProt Q9H040 200-250)
T3 sequence: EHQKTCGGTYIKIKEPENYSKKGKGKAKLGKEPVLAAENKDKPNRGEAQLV

T4: SPRTN 1-199 (Homo sapiens, UniProt Q9H040 1-199)
T4 sequence: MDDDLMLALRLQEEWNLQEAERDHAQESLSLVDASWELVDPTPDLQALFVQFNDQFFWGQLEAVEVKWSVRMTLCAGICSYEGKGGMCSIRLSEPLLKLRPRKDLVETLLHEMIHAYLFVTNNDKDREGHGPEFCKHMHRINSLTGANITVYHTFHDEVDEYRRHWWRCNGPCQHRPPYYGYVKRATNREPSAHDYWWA

T5: SPRTN-EQ (Homo sapiens, UniProt Q9H040 1-489, E112Q)
T5 sequence: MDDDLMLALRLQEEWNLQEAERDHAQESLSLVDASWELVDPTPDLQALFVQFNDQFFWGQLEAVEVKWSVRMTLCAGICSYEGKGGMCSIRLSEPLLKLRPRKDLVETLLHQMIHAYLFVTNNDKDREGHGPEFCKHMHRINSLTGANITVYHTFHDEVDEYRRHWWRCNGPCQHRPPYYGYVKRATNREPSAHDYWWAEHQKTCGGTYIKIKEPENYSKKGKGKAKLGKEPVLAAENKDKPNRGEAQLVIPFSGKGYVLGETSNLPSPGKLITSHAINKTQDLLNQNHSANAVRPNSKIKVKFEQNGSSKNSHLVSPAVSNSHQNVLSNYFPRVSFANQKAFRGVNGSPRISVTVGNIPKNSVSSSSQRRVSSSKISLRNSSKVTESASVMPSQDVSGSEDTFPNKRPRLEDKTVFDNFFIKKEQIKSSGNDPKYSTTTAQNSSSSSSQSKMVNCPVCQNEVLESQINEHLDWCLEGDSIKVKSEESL


Experiments:
SPRTN 247-489 = molecular target: T1, SPRTN 247-489; assay: EMSA; 250 nM DNA, 0.5-1 uM protein; Oligo EMSA: protein in 250 mM NaCl, 50 mM HEPES pH 7.5, 10% glycerol mixed 1:1 with DNA in 0.2 mg/ml BSA, 15 uM (so in the source) HEPES pH 7.5; 20 min on ice; 6% PAGE. Phage DNA: 0.8% agarose, 4 C; conditions: protein: recombinant; label: 5' Alexa488
SPRTN WT = molecular target: T2, SPRTN WT; assay: as above; conditions: protein: recombinant; tags: N-terminal GST, C-terminal Strep; label: 5' Alexa488
SPRTN 200-250 = molecular target: T3, SPRTN 200-250; assay: EMSA; 250 nM DNA, 0.25-1 uM protein; Oligo EMSA: protein in 250 mM NaCl, 50 mM HEPES pH 7.5, 10% glycerol mixed 1:1 with DNA in 0.2 mg/ml BSA, 15 uM (so in the source) HEPES pH 7.5; 20 min on ice; 6% PAGE. Phage DNA: 0.8% agarose, 4 C; conditions: protein: recombinant; tags: GST; label: 5' Alexa488
SPRTN 1-199 = molecular target: T4, SPRTN 1-199; assay: as above; conditions: protein: recombinant; tags: N-terminal GST, C-terminal Strep; label: 5' Alexa488
SPRTN-EQ = molecular target: T5, SPRTN-EQ; assay: SAXS; 1:1.2 protein:DNA; Rg +8-10 A, Dmax +30 A; 50 mM HEPES pH 7.5, 75 mM KCl, 1% glycerol; Oligo EMSA: protein in 250 mM NaCl, 50 mM HEPES pH 7.5, 10% glycerol mixed 1:1 with DNA in 0.2 mg/ml BSA, 15 uM (so in the source) HEPES pH 7.5; 20 min on ice; 6% PAGE. Phage DNA: 0.8% agarose, 4 C; conditions: protein: recombinant; tags: N-terminal GST, C-terminal Strep

| Binder | binding result (SPRTN 247-489) | binding result (SPRTN WT) | binding result (SPRTN 200-250) | binding result (SPRTN 1-199) | binding result (SPRTN-EQ) |
| --- | --- | --- | --- | --- | --- |
| ACGCTGCCGAATTCTACCAGTGCCTTGCTA (ssDNA) [Alexa488 30-mer ss oligonucleotide] | no binding | binds | binds | no binding | – |
| ACGCTGCCGAATTCT (ssDNA) [15-mer ssDNA] | – | – | – | – | binds |
